Assay results published in patent publication US20060063709A1.

Target: NF-kB from mouse cells (nuclear extracts of TPA-stimulated 70Z/3 pre-B cells; also nuclear extracts of the mouse B cell line WEHI 231; cytosolic precursor of 70Z/3) (mouse)

IkB (protein inhibitor of NF-kB) prepared from cytosol of unstimulated mouse 70Z/3 pre-B cells
DNA binding activity of NF-kB in EMSA (inhibitor assay): > 90%
reactivation of IkB-inactivated NF-kB DNA binding activity by DOC (EMSA): 66%
